Results published in the DeepSol protein solubility set.

Assay: soluble on expression in E. coli; label from the status in PepcDB or PDB records

Question: With “MSTPTPKVGFVSLGCPKALVDSERILTQLRMEGYEVVPTYEDADVVVVNTCGFIDSAKAESLEVIGEAIAENGKVIVTGCMGVEEHAIRDVHPSVLAVTGPQQYEQVVTAVHEVVPPKTEHNPLVDLVPPQGVKLTPRHYAYLKISEGCNHSCSFCIIPSMRGKLVSRPVGDVLSEAERLVKAGVKELLVISQDTSAYGVDLKYKTDFWNGQPVKTRMKELCEALSSMGVWVRLHYVYPYPNVDDVIPLMAAGKLLPYLDIPFQHASPKVLKAMKRPAFEDKTLARIKQWREICPELTIRSTFIVGFPGETEEDFQYLLDWLTEAQLDRVGCFQYSPVEGAPANELGLEPVPDEVKQDRWERFMAHQQAISAARLQLKVGKEIEVLIDEVDEQGAVGRSWADAPEIDGNVFVDSDELKPGDKVRVRITDADEYDLWAELVLEHHHHHH” as the sequence, how does the “soluble on expression in E. coli” value read?
Answer: soluble

Question: With “MGSDKIHHHHHHMCQHSIANIDINKDYDESLGTEEVHYQSFSRMAAFFGRDMQAHRHDRYFQMHYLDTGQIELQLDDHRYSVQAPLFVITPPSVPHAFITESDSDGHVLTVHEELIWPLLEVLYPGTRETFGLPGICLSLADKPDELAALAHYWQLIRRESTAQLPGREHTLALLAQAVFTLLLRNAKLDDHAASGMRGELKLFQRFNQMIDSHYHQHWTVPDYARELHLTESRLTDICRRFANRPPKRLIFDRQLREAKRLLLFSDSAVNEIAWQLGFKDPAYFARFFSRQVGCSPSSYRAQKVPVS” as the sequence, how does the “soluble on expression in E. coli” value read?
Answer: not soluble

Question: For “PETVCWGHVEEVELINDGSGLGFGIVGGKTSGVVVRTIVPGGLADRDGRLQTGDHILKIGGTNVQGMTSEQVAQVLRNCGNSVRMLVARDPAGDISVT”, which “soluble on expression in E. coli” value is on record?
Answer: soluble

Question: For “MSLKAWQLENFGLDNLKQVELEKPEIAEDQILIKVNSVSLNYRDTAIVEGIYTPELLKFPFIPVSDASGIVVEIGSKVTKFKKGDRVTSHMFTKWLDGKPKSDEQSHALGATVDGGLSEYMVLNENAAVFSPETLTDNQSSTLPVAAFVNWFSLVEYGNIKAGDKVLVQGTGGVSIFAIQIASALGAEVIATSSSDEKLEKAKELGASKVINYKTHPDWEKEVQKLTNGKGVEHIVEVVGGSSIAKSIDALAFQGHIYVIGFLENMEANVNLFALLAKQARIQGVNLGHHRAFEDFNKALDQINIDPVIDTVYSFDQAKEAYEHQMKGAFGKIVIDFNEGHHHHHH”, which “soluble on expression in E. coli” value is on record?
Answer: not soluble

Question: For “MIARYQTPEMARLWSEESRYRMWARVEAYALEAWEALGEVPKGLSARLLAKLEEKPLDGAFARRVAELEAVTRHDLVAFTRALAEWTGDEEVGRYLHLGLTSSDIVDTAQNALLVEALGLVLEELKGVEEALKALALRHKHTPAIARTHGVHAEPTSFGLRFLFFLAAFQRDEERLKRARETIGVAMLSGSVGNYAHVPPEVEAHVASRLGLRPEPLSTQVVPRDRHAEVMAALAILGGNIERVAVELRHLQRTEVLEAQEPFHEGQTGSSSMPHKKNPVGLENLTGVARLLRGYLFPALEDIALWHERDISHSSVERVILPDATTLAHYALRRLKGILEGLEVFEENLARNLDLTRGLVYSQQVLNALIARGLSRNKAYALVQRNALRSWKEGKSFLELLEADPENPLKGKELRALFDPKPFLRHVDAIYARFGL”, which “soluble on expression in E. coli” value is on record?
Answer: soluble

Question: Which “soluble on expression in E. coli” value does the source give for “MREMKKLVKIATSLTLMGGIFVSANGVSANTDVTQKSSPNIMIEFDDVTTDHWAYDEITNLVYHRIMYGYGNGKFGTEDNITREQAAAVLHRALGLKRSVFDANPYGDISGKSTMFPYEILHLTNLGIFKGDENGNFRPKDTLTRAELAQILTKAYELKAKSPHTFTDIPEKHWARDAISALQSNKVAVGTGDGKFEPEMLVTRGQFAKFLQRSIDNSPGKME” here?
Answer: not soluble

Question: Which “soluble on expression in E. coli” value does the source give for “SRQWSQTLCEMSESEDDDIPQLSSHTLAALQEFYAEQKQSVNPRGDDKYNVGVIEENWQLSQFWYSQDTALRLAREAIDAAGEGGRIACVSAPSVYQKLRELCREDSSVYIFEYDRRFAIYGDEFIFYDYNHPLELPERIAAHSFDLVVADPPYLSEECLRKTSETIQFLTRGKILLCTGAIMEEQAAQLLGVKMCKFIPEHSRNLANEFRCYTNYDSGLDCEA” here?
Answer: soluble

Question: With “MKKVLIKGAMALLLSSYSMIVSAEDKTITLMLDWFVNPNHGPVVVAQQKGYFKEEGLNITIQEPADPSMPAKLVAANNIDLAISYQTSLTIDVAAGLPLIRSATLIATPLNTLMVLDNGKINSLADLKGKKIGIAIAGNEEATIGTMLKTENVNFSDVNIINVGWALSSSLASGKVDAIWGGLRNFETNQLALEGYKAKSFFPEEHGVPSYDELVFVANAKTYDADALKKFNHAIEKATQFIVNHPEESWKTFISYAPDTLNNELNKRAWNDTLTRFALRPSAVDLQRYDRFSDFMYRHQMIKTQPKAQNFVPVL” as the sequence, how does the “soluble on expression in E. coli” value read?
Answer: not soluble

Question: With “MTAFSTLNVLPPAQLTNLNELGYLTMTPVQAAALPAILAGKDVRVQAKTGSGKTAAFGLGLLQQIDASLFQTQALVLCPTRELADQVAGELRRLARFLSNTKILTLCGGQPFGMQRDSLQHAPHIIVATPGRLLDHLQKGTVSLDALNTLVMDEADRMLDMGFSDAIDDVIRFAPASRQTLLFSATWPEAIAAISGRVQRDPLAIEIDSTDALPPIEQQFYETSSKGKIPLLQRLLSLHQPSSCVVFCNTKKDCQSVCDALNEVGQSALSLHGDLEQRDRDQTLVRFANGSARVLVATDVAARGLDIKSLELVVNFELAWDPEVHVHRIGRTARAGNSGLAISFCAPEEAQRANIISDMLQIKLNWQTLPANSSIVPLEAEMATLCIDGGKKAKMRPGDVLGALTGDIGLDGADIGKIAVHPAHVYVAVRQAVAHKPWKQLQGGKIKGKTCRVRLLK” as the sequence, how does the “soluble on expression in E. coli” value read?
Answer: soluble

Question: With “GSHMATPWSGYLDDVSAKFDTGVDNLQTQVTEALDKLAAKPSDPALLAAYQSKLSEYNLYRNAQSNTAKAFKDIDAAIIQNFR” as the sequence, how does the “soluble on expression in E. coli” value read?
Answer: soluble

Question: Which “soluble on expression in E. coli” value does the source give for “MSYLDTATDLPNQTLFLEYLNIALSNARRHHAQVGVLLCQINNWSDLKRKRGDAVANAFLQEAGQKLKSNLRNGDIVSRWDKDEFIFLVSKVQDTSSLLGIAQRLMKPVLAPVTAGGRPFQPEITYGVALYPVDGEQVNDLIGHIRENLQQLLPQPTLEHHHHHH” here?
Answer: not soluble

Question: With “MGSDKIHHHHHHMSLSYKEMHQTLMEELRLYHYPVAVKFFFDDEELATFKEKAEFYVPVKPMTFCQWELAARMKGQTVLATREDLGCSNALVSFGWKDIDDNEIKSHMKYVRSIEQAEKFVRSKPRLDMGSVKAIAVGPLGDAIVAPSVVHFYCDNMQSYHLAVDYMAAMDQHPLRTNVTMNSSACGGTVFSFLEKTANMLPACSGSYNAGKTERGEINFMIPGEHIEATVERLLERKRNLGSSAITRPGDGFPGADVCKNCPLIIFKKEK” as the sequence, how does the “soluble on expression in E. coli” value read?
Answer: not soluble

Question: With “GNHHHHHMMLIKKIEELKNSEIKDIIDKRIQEFKSFKNKSNEEWFKELCFCILTANFTAEGGIRIQKEIGDGFLTLPREELEEKLKNLGHRFYRKRAEYIVLARRFKNIKDIVESFENEKVAREFLVRNIKGIGYKEASHFLRNVGYDDVAIIDRHILRELYENNYIDEIPKTLSRRKYLEIENILRDIGEEVNLKLSELDLYIWYLRTGKVLK” as the sequence, how does the “soluble on expression in E. coli” value read?
Answer: soluble

Question: Which “soluble on expression in E. coli” value does the source give for “MKQLTILGSTGSIGNSTLSVVRANPELFKVTALVAGRNVREMAQQCLEFSPRYAAMSDEHSAKSLRLLLAEQGSDTEVYSGETAACELAALDDVDQVMAAIVGIAGLPSTLAAIRAGKQVLLANKESLITCGKLFMDEVKRSRAQLLPIDSEHNAIFQSLPERIQRQLGYSSLNENGVSRIILTGSGGPFRETPLSQFSDVTPDQACAHPNWSMGRKISVDSATMMNKGLEYIEARWLFNASAEQIEVVLHPQSVIHSMVRYHDGSILAQMGTPDMRTPIAHAMAYPMRVSSGVAPLDFCKVGALTFTTPDYQRYPCLKLAIDACNAGQAATTALNAANEISVMAFLDSKIRFTDIEVINRTVVEGLLLSEPTSVEEVLVIDRKARDVAAQVIAKLNN” here?
Answer: not soluble

Question: For “MRILNVSLLVLASSLVAFVECGRDFYKILGVAKNANANQIKKAYRKLAKELHPDRNQDDEMANEKFQDLSSAYEVLSDKEKRAMYDRHGEEGVAKMGGGGGGGHDPFSSFFGDFFGGGGGHGGEEGTPKGADVTIDLFVTLEEVYNGHFVEIKRKKAVYKQTSGTRQCNCRHEMRTEQMGQGRFQMFQVKVCDECPNVKLVQENKVLEVEVEVGADNGHQQIFHGEGEPHIEGDPGDLKFKIRIQKHPR”, which “soluble on expression in E. coli” value is on record?
Answer: not soluble

Question: With “MAKRYVGSCTTVLVGKKASIDGSTIIARNEDGESPLHPQKFVYVKPEDQPRHYQSVLSKFAIDLPADPLGYTATPEAEDGHGIWAAAGINSENIAMTSTETITTNSRVLGVDPLVAAGIGEEDMPTIVLPYIHSARDGVQRLGSLLEQYGTYESNGIAFADKDEVWYFESIGGHHWAAIRIPDDAYVVAPNRFNITDFDFASDDTMSSADLRDLIETYHLNPDTEGYNLRHIFGSATIKDTRYNNPRTWYGQKYFNPEFNTTPIDQDLPFICRTSKKISIEDVKFVESSHYENTPYDVYGTTGTPAQKKLYRPIGINRNQELHILQIRNNVPAAVAGIHWLAFGPNTFNAVVPFYANVNDTPAAYRETGDKFDVTKMYWLSNLLATFGDYDFSLFKDQEDVFEQKTVAACRHLQLTTDEAVKDAKDIGDHLTAANEQMATIAMANSNELLGQMVAAAAPKMKLQFTLHDLEHHHHHH” as the sequence, how does the “soluble on expression in E. coli” value read?
Answer: not soluble

Question: With “MSLPHALIVEDDPNSLSGLSAILAADGFSVDTATTIAEARAALTRFIPDVVLVDLNLPDGSGLDLLQHLPAHPPGGALPVIVMTGNATVESAIEGLRHGIWDYLLKPVNIPRLRSLLARIPRPYELTEEVQTLRASLRQLGRFGSMLGRSGAIQHVYDTIEHIAPTEAAVLISGETGTGKQIAARTMHDMSRRRKGPFITFDCRSANSAGVQRSLDSLLFGHERGAFNGAEQREPGLFEQASGGTLFIEEIAELPRAQQEALLRALDSQTFMRVGGTNQVVTDFRLIASTRKAPRAAVADGSLHEDLALRLEAAAVTLPPLRERGEDPALIAQAVVDELNHEGLTRGSAESAKQVAPNFLRECLAYEWPGNVRELQDRVRRAYHASGDVLESLRADEAGSEGHHHHHH” as the sequence, how does the “soluble on expression in E. coli” value read?
Answer: soluble

Question: For “MAHPPRLNDDKPVIWTVSVTRLFELFRDISLEFDHLANITPIQLGFEKAVTYIRKKLANERCDAIIAAGSNGAYLKSRLSVPVILIKPSGYDVLQALAKAGKLTSSIGVVTYQETIPALVAFQKTFNLRLDQRSYITEEDARGQINELKANGTEAVVGAGLITDLAEEAGMTGIFIYSAATVRQAFSDALDMTRMSLRHNTHDATRNALRTRYVLGDMLGQSPQMEQVRQTILLYARSSAAVLIEGETGTGKELAAQAIHREYFARHDARQGKKSHPFVAVNCGAIAESLLEAELFGYEEGAFTGSRRGGRAGLFEIAHGGTLFLDEIGEMPLPLQTRLLRVLEEKEVTRVGGHQPVPVDVRVISATHCNLEEDMQQGRFRRDLFYRLSILRLQLPPLRERVADILPLAESFLKVSLAALSAPFSAALRQGLQASETVLLHYDWPGNIRELRNMMERLALFLSVEPTPDLTPQFMQLLLPELARESAKTPAPRLLTPQQALEKFNGDKTAAANYLGISRTTFWRRLKS”, which “soluble on expression in E. coli” value is on record?
Answer: not soluble

Question: Which “soluble on expression in E. coli” value does the source give for “MTFEEKRKHLETTYPNKRTPESRAKSREILKLIADNLEMFPIASPESSSSKAKTDPMSRLEHGSEFNDLTVPRVEKLTPVSELYSIENTSLKFGTEDDFSDLSYSNTSPFQSVSTLYDQPSTPFSDDSDLEATPRTCVQ” here?
Answer: not soluble

Question: With “MKVNILMATYNGEKFLAQQIESIQKQTFKEWNLLIRDDGSSDKTCDIIRNFTAKDSRIRFINENEHHNLGVIKSFFTLVNYEVADFYFFSDQDDVWLPEKLSVSLEAAKHKASDVPLLVYTDLKVVNQELNILQDSMIRAQSHHANTTLLPELTENTVTGGTMMINHALAEKWFTPNDILMHDWFLALLAASLGEIIYLDLPTQLYRQHDNNVLGARTMDKRFKILREGPKSIFTRYWKLIHDSQKQASLIVDKYGDIMTANDLELIKCFIKIDKQPFMTRLRWLWKYGYSKNQFKHQVVFKWLIATNYYNKRLEHHHHHH” as the sequence, how does the “soluble on expression in E. coli” value read?
Answer: soluble
